Reference: US20150139996A1
Where two headings read alike, the source gives them in different places.

Columns and labels:
[1] = target: IgG1 heavy chain with CH3 construct 5 (E356K, E357K, K439D, K370D) (human) [IgG part: P01857]; assay: native MS; transfection O: vectors I+II+III co-expressed 1:1:1
[2] = target: IgG1 heavy chain with CH3 construct 5 (E356K, E357K, K439D, K370D) (human) [IgG part: P01857]; assay: native MS; transfection H: vector III alone (VH MF1122, construct 5)
[3] = target: IgG1 heavy chain with CH3 construct 5 (E356K, E357K, K439D, K370D) (human) [IgG part: P01857]; assay: native MS; transfection N: vectors I+III co-expressed 1:1
[4] = target: IgG1 heavy chain with CH3 construct 5 (E356K, E357K, K439D, K370D) (human) [IgG part: P01857]; assay: native MS; transfection U: vectors I+III co-expressed 1:5
[5] = target: IgG1 heavy chain with CH3 construct 5 (E356K, E357K, K439D, K370D) (human) [IgG part: P01857]; assay: native MS; transfection V: vectors I+II+III co-expressed 1:1:10
[6] = target: IgG1 heavy chain with CH3 construct 65 (S354D, Y349D) (human) [IgG part: P01857]; assay: native MS; transfection ZQ: vectors XII+XVIII co-expressed
[7] = target: IgG1 heavy chain with CH3 construct 64 (T366D) (human) [IgG part: P01857]; assay: SDS-PAGE of protein A-purified supernatant; construct expressed alone
[8] = target: IgG1 heavy chain with CH3 construct 64 (T366D) (human) [IgG part: P01857]; assay: native MS; transfection ZP: vectors XIV+XVII co-expressed
[9] = target: IgG1 heavy chain with CH3 construct 76 (L351K, L368K) (human) [IgG part: P01857]; assay: native MS; combination 15 co-expressed (A: VH MF1337, B: VH MF1122)
[10] = target: IgG1 heavy chain with CH3 construct 64 (T366D) (human) [IgG part: P01857]; assay: as above
[11] = target: IgG1 heavy chain with CH3 construct 64 (T366D) (human) [IgG part: P01857]; assay: native MS; combination 16 co-expressed (A: VH MF1337, B: VH MF1122)
[12] = target: IgG1 heavy chain with CH3 construct 77 (L351R) (human) [IgG part: P01857]; assay: as above
[13] = target: IgG1 heavy chain with CH3 construct 66 (V397D) (human) [IgG part: P01857]; assay: native MS; transfection ZR: vectors XV+XIX co-expressed
[14] = target: IgG1 heavy chain with CH3 construct 3 (K392D, K409D, K439D) (human) [IgG part: P01857]; assay: native MS; transfection L: vectors IV+VII+VIII 1:1:1; BC = vector IV with vector VII
[15] = target: IgG1 heavy chain with CH3 construct 2 (K392D, K409D) (human) [IgG part: P01857]; assay: native MS; transfection K: vectors IV+V+VI 1:1:1; BC = vector IV with vector V (fibrinogen VH)
[16] = target: IgG1 heavy chain with CH3 construct 2 (K392D, K409D) (human) [IgG part: P01857]; assay: native MS; transfection I: vectors IV+V co-expressed 1:1
[17] = target: IgG1 heavy chain with CH3 construct 1 (E356K, D399K) (human) [IgG part: P01857]; assay: SDS-PAGE of protein A-purified supernatant; construct expressed alone
[18] = target: IgG1 heavy chain with CH3 construct 3 (K392D, K409D, K439D) (human) [IgG part: P01857]; assay: native MS; transfection T: vectors IV+VII+VIII 2:1:1; BC = vector IV with vector VII
[19] = target: IgG1 heavy chain with CH3 construct 1 (E356K, D399K) (human) [IgG part: P01857]; assay: native MS; transfection S: vectors IV+V+VI 2:1:1; homodimer of vector IV
[20] = target: IgG1 heavy chain with CH3 construct 3 (K392D, K409D, K439D) (human) [IgG part: P01857]; assay: native MS; transfection J: vectors IV+VII co-expressed 1:1
[21] = target: IgG1 heavy chain with CH3 construct 2 (K392D, K409D) (human) [IgG part: P01857]
[22] = target: IgG1 heavy chain with CH3 construct 3 (K392D, K409D, K439D) (human) [IgG part: P01857]; assay: native MS; transfection T: vectors IV+VII+VIII 2:1:1; AB = vector IV with vector VIII
[23] = target: IgG1 heavy chain with CH3 construct 3 (K392D, K409D, K439D) (human) [IgG part: P01857]; assay: native MS; transfection L: vectors IV+VII+VIII 1:1:1; AB = vector IV with vector VIII
[24] = target: IgG1 heavy chain with CH3 construct 1 (E356K, D399K) (human) [IgG part: P01857]; assay: native MS; transfection T: vectors IV+VII+VIII 2:1:1; homodimer of vector IV
[25] = target: IgG1 heavy chain with CH3 construct 2 (K392D, K409D) (human) [IgG part: P01857]; assay: native MS; transfection S: vectors IV+V+VI 2:1:1; AB = vector IV with vector VI
[26] = target: IgG1 heavy chain with CH3 construct 2 (K392D, K409D) (human) [IgG part: P01857]; assay: native MS; transfection S: vectors IV+V+VI 2:1:1; BC = vector IV with vector V
[27] = target: IgG1 heavy chain with CH3 construct 1 (E356K, D399K) (human) [IgG part: P01857]; assay: native MS; transfection B: vector IV alone (thyroglobulin VH, construct 1)
[28] = target: IgG1 heavy chain with CH3 construct 2 (K392D, K409D) (human) [IgG part: P01857]; assay: native MS (peak height); transfection #11 of Table 24; CC = C (fibrinogen)/1 with C/2
[29] = target: IgG1 heavy chain with CH3 construct 2 (K392D, K409D) (human) [IgG part: P01857]; assay: native MS (peak height); transfection #9 of Table 24; CD = C (fibrinogen)/1 with D (RTK2)/2
[30] = target: IgG1 heavy chain with CH3 construct 63 (L351D) (human) [IgG part: P01857]; assay: native MS; transfection ZT (3:1): vectors XIII+XVI co-expressed
[31] = target: IgG1 heavy chain with CH3 construct 63 (L351D) (human) [IgG part: P01857]; assay: native MS; transfection ZW (1:1): vectors XIII+XVI co-expressed
[32] = target: IgG1 heavy chain with CH3 construct 63 (L351D) (human) [IgG part: P01857]; assay: native MS; transfection ZO (1:1): vectors XIII+XVI co-expressed
[33] = target: IgG1 heavy chain with CH3 construct 63 (L351D) (human) [IgG part: P01857]; assay: SDS-PAGE of protein A-purified supernatant; construct expressed alone
[34] = target: IgG1 heavy chain with CH3 construct 63 (L351D) (human) [IgG part: P01857]; assay: native MS; combination 2 co-expressed (A: VH MF1337, B: VH MF1122)
[35] = target: IgG1 heavy chain with CH3 construct 63 (L351D) (human) [IgG part: P01857]; assay: native MS; transfection ZV (1:3): vectors XIII+XVI co-expressed
[36] = target: IgG1 heavy chain with CH3 construct 63 (L351D) (human) [IgG part: P01857]; assay: native MS; transfection ZU (1:1): vectors XIII+XVI co-expressed
[37] = target: IgG1 heavy chain with CH3 construct 63 (L351D) (human) [IgG part: P01857]; assay: native MS; combination 7 co-expressed (A: VH MF1337, B: VH MF1122)
[38] = target: IgG1 heavy chain with CH3 construct 4 (K392D, D399K, K409D) (human) [IgG part: P01857]; assay: native MS; transfection O: vectors I+II+III co-expressed 1:1:1
[39] = target: IgG1 heavy chain with CH3 construct 4 (K392D, D399K, K409D) (human) [IgG part: P01857]; assay: native MS; transfection G: vector II alone (VH MF1025, construct 4)
[40] = target: IgG1 heavy chain with CH3 construct 4 (K392D, D399K, K409D) (human) [IgG part: P01857]; assay: native MS; transfection M: vectors I+II co-expressed 1:1
[41] = target: IgG1 heavy chain with CH3 construct 4 (K392D, D399K, K409D) (human) [IgG part: P01857]; assay: native MS; transfection V: vectors I+II+III co-expressed 1:1:10
[42] = target: IgG1 heavy chain with CH3 construct 72 (L351D, R355D) (human) [IgG part: P01857]; assay: SDS-PAGE of protein A-purified supernatant; construct expressed alone
[43] = target: IgG1 heavy chain with CH3 construct 72 (L351D, R355D) (human) [IgG part: P01857]; assay: native MS; combination 8 co-expressed (A: VH MF1337, B: VH MF1122)
[44] = target: IgG1 heavy chain with CH3 construct 67 (K360D) (human) [IgG part: P01857]; assay: native MS; transfection ZS: vectors XI+XX co-expressed
[45] = target: IgG1 heavy chain with wildtype CH3 (construct vector MV1057, wildtype IgG1 Fc) (human) [IgG part: P01857]; assay: native MS; transfection O: vectors I+II+III co-expressed 1:1:1
[46] = target: IgG1 heavy chain with wildtype CH3 (construct vector MV1057, wildtype IgG1 Fc) (human) [IgG part: P01857]; assay: native MS; transfection N: vectors I+III co-expressed 1:1
[47] = target: IgG1 heavy chain with wildtype CH3 (construct vector MV1057, wildtype IgG1 Fc) (human) [IgG part: P01857]; assay: native MS; transfection U: vectors I+III co-expressed 1:5
[48] = target: IgG1 heavy chain with wildtype CH3 (construct vector MV1057, wildtype IgG1 Fc) (human) [IgG part: P01857]; assay: native MS; transfection M: vectors I+II co-expressed 1:1
[49] = target: IgG1 heavy chain with wildtype CH3 (construct vector MV1057, wildtype IgG1 Fc) (human) [IgG part: P01857]; assay: native MS; transfection V: vectors I+II+III co-expressed 1:1:10
[50] = target: IgG1 heavy chain with wildtype CH3 (construct vector MV1057, wildtype IgG1 Fc) (human) [IgG part: P01857]; assay: native MS; transfection A: vector I alone (VH MF1337, wildtype CH3)

IgG1 heavy chain with CH3 construct 5 (E356K, E357K, K439D, K370D) (from UniProt P01857-1)
CC found (%) [1]: 30% | CC found (%) [2]: 100% | CC found (%) [3]: 9% | CC found (%) [4]: 48% | CC found (%) [5]: 9%

IgG1 heavy chain with CH3 construct 65 (S354D, Y349D) (from UniProt P01857-1)
CC found (%) [6]: 33%

IgG1 heavy chain with CH3 construct 64 (T366D) (from UniProt P01857-1)
% IgG [7]: 89.6% | % half molecule [7]: 10.4% | CC found (%) [8]: 13% | % AB found [9]: 92% | % AA found [10]: 3% | % AA found [11]: 30% | % AB found [12]: 69%

IgG1 heavy chain with CH3 construct 66 (V397D) (from UniProt P01857-1)
CC found (%) [13]: 11%

IgG1 heavy chain with CH3 construct 1 (E356K, D399K) (from UniProt P01857-1)
Bispecific found (%) [14]: 16% | Bispecific found (%) [15]: 38% | Bispecific found (%) [16]: 96% | % IgG [17]: 64.2% | % half molecule [17]: 35.8% | Bispecific found (%) [18]: 58% | Other molecules (%) [19]: 3% | Bispecific found (%) [20]: 96% | Bispecific found (%) [21]: 47% | Bispecific found (%) [22]: 39% | Bispecific found (%) [23]: 60% | Other molecules (%) [24]: 3% | Bispecific found (%) [25]: 55% | Bispecific found (%) [26]: 42% | Full IgG found (%) [27]: 60% | Half molecules found (%) [27]: 40% | percent of species in the mixture [28]: 61% | percent of species in the mixture [29]: 67%

IgG1 heavy chain with CH3 construct 63 (L351D) (from UniProt P01857-1)
CC found (%) [30]: 16% | CC found (%) [31]: 2.4% | CC found (%) [32]: 7% | % IgG [33]: 89.8% | % half molecule [33]: 10.2% | % BB found [34]: 3% | CC found (%) [35]: 23% | CC found (%) [36]: 10% | % BB found [37]: 12%

IgG1 heavy chain with CH3 construct 4 (K392D, D399K, K409D) (from UniProt P01857-1)
BB found (%) [38]: 4% | BB found (%) [39]: 100% | BB found (%) [40]: 45% | BB found (%) [41]: 81%

IgG1 heavy chain with CH3 construct 72 (L351D, R355D) (from UniProt P01857-1)
% IgG [42]: 100% | % BB found [43]: 8%

IgG1 heavy chain with CH3 construct 67 (K360D) (from UniProt P01857-1)
CC found (%) [44]: 15%

IgG1 heavy chain with wildtype CH3 (construct vector MV1057, wildtype IgG1 Fc) (from UniProt P01857-1)
AA found (%) [45]: 66% | AA found (%) [46]: 88% | AA found (%) [47]: 47% | AA found (%) [48]: 51% | AA found (%) [49]: 8% | AA found (%) [50]: 100%
